Numbering of substitutions follows the chain as printed. Blank lines part the entries; values can stand above or below the binder they belong to.
Legend:
[1] = target: T1, Human MAGEB2 (Melanoma-associated antigen B2) (human, UniProt O15479 1-319); assay: IHC, antibody supernatant on FFPE CHO cells transfected with human MAGEB2
T1 construct: Intracellular antigen detected by IHC in FFPE material: CHO cells transfected with human MAGEB2 (mCherry vector with Myc/DDK tags, or ORF without tags)
T1 sequence: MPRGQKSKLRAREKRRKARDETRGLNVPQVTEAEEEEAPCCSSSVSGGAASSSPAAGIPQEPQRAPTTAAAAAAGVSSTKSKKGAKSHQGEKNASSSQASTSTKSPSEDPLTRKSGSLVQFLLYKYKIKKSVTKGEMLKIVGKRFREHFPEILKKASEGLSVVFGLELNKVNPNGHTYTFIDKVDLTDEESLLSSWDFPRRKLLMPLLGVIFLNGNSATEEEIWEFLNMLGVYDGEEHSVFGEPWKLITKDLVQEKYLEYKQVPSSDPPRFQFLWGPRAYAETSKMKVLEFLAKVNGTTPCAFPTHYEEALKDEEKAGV
Description: Negative control cells included parental Chinese hamster ovary (CHO) cells, CHO cells stably transfected with mCherry Vector Control (minus Myc/DDK tags), CHO cells stably transfected with mCherry-human DCAF4L2 (plus Myc/DDK tags). The cross-reactivity control cells included CHO cells transfected with mCherry Vector Control (plus Myc/DDK tags) with one of the human MAGE-B or MAGE-A family members (MAGEA1, MAGEA2, MAGEA3, MAGEA4, MAGEA5, MAGEA6, MAGEA8, MAGEA9, MAGEA11, MAGEA12, MAGEB1, MAGEB3, MAGEB4, MAGEB5, MAGEB6, MAGEB10, MAGEB16, MAGEB17, MAGEB18). Positive control cell lines included CHO cells transfected with mCherry Vector (plus Myc/DDK tags) with human MAGE-B2 or CHO cells transfected with mCherry Vector (open reading frame (ORF); minus Myc/DDK tags) with human MAGEB2, and thirteen human cancer cell lines with known endogenous RNA expression level of MAGEB2 (U266B1, T98G, KMM-1, U20S, CFPAC-1, SCaBER, UACC-257, CFPAC-1, VMRC-LCD, NCI-H1703, UM-UC-3, NCI-H1395, NCIH82).
FFPE samples were sectioned at 4 μm and mounted on positive charged glass slides. After mounting, paraffin sections were air-dried at room temperature. FFPE TMA samples were received as freshly sectioned and mounted on glass slides. The fully automated IHC assay was performed on a Discovery Ultra Stainer (Ventana Medical Systems, Tucson, AZ) using Ventana Anti-Rabbit HQ (cat #760-4815), Ventana Anti-HQ HRP (cat #760-4820), and Ventana Antibody Diluent with Casein (cat #760-219) (Ventana Medical Systems, Tucson, AZ). The slides were baked on the Discovery Ultra Stainer at 60° C. for 8 minutes, de-paraffinized with Ventana Discovery wash (cat #950-510) for 3 cycles (8 minutes each) at 69° C., and underwent cell conditioning (target retrieval) at 95° C. for 16 minutes (for cell arrays) or 32 minutes (tissues or TMAs) in CC1 buffer (cat #950-500). Following this, slides were incubated with Background Sniper (cat #BS966M, Biocare Medical, Pacheco, CA) in a Ventana Option Prep kit (cat #771-751) for 28 minutes, incubated with CM inhibitor (a part of the Ventana DAB kit cat #760-159) for 12 minutes, and incubated for 1 h at RT with MAGE-B2 antibody diluted with Ventana diluent with Casein in a Ventana Prep kit (cat #770-001) (working concentration at 0.1 μg/ml for cell pellet, or 1-5 ug/ml for tissues) or with a matched concentration of isotype control Rabbit IgG1 antibody.

[2] = target: T2, huMAGEB2(1-319), biotinylated full length MAGEB2 protein (human, UniProt O15479 1-319, biotinylated with recombinant BirA (site not stated)); assay: limited antigen FACS; biotinylated full length MAGEB2 on LumAvidin beads; B-cell supernatant
T2 construct: Expressed in E. coli from pET23; N-terminal 6xHis tag removed with caspase 3; also called Biotinylated MAGEB2 full length protein
T2 sequence: T1 sequence
Method: Biotinylated MAGEB2 full length protein was titrated 1:2 across 6 different limited antigen concentrations and then coated onto six different LumAvidin beads in FACS buffer [1×PBS+2% fetal bovine serum (Hyclone Cat No. SH30396.03)] for 30 minutes at room temperature in the dark. The beads were then washed twice in FACS buffer by centrifugation for 2 min at 3500 RPM. The coated beads were resuspended and pooled together (6-plex) and added to the rabbit B-cell supernatants at a 1:2 final dilution onto Corning 3897 96 well V-bottom polystyrene plates and incubated overnight at room temperature in the dark. […] A final wash was done before plates were read on the iQue FACS machine with Intellicyte autosampler to obtain flow cytometry measurements according to the manufacturer's recommendations; data analysis was done on Intellicyt ForeCyt® Enterprise Client Edition 6.2 (R3).

binding result [1]: binds | binding result [2]: binds
B1: 5I9 (antibody, IgG1, V domains shown)
VH: QSLEESGGRLVTPGGPLTLTCTVSGFSLSSYDMSWVRQAPGKGLEWIGYIATDGRPYYASWAKGRFTISKPSSTTVDLKITSPTTEDTATYFCVRGGYAGGLWGPGTLVTVSS
VL: AAVLTQTPSPVSAAVGGTVSISCQSSKSVYNNNWLAWYQQKPGQRPKLLIYDASTLDSGVSSRFKGSGSGTQFTLTISDVQCDDGATYYCVGGYSSRSDNGFGGGTEVVVK
notes: Rabbit monoclonal IgG1

binding result [1]: binds | binding result [2]: binds
B2: 7F15 (antibody, IgG1, V domains shown)
VH: QEQLKESGGGLVAPGGTLTLTCAVSGFSLSSYNMGWVRQAPGEGLEYIGIIGASDSALYASWAKGRFTISKTSTTVDLKITSPTTEDTATYFCARGGLGLSTGFALWGPGTLVTVSS
VL: AAVLTQTPSPVSAAVGGTVSISCQSSQSVWHNDYLSWYQQKPGQPPKLLIYGASTLASGVPSRFKGSGSGTQFSLTISGVQCDDAATYYCAGGYGRSSENGFGGGTEVVVK
notes: Rabbit monoclonal IgG1

binding result [1]: binds | binding result [2]: binds
B3: 1J16 (antibody, IgG1, V domains shown)
VH: QSLEESGGGLVQPEGSLTVTCTAFGVTLTNYYICWVRQAPGKGLEWIGCIDNINGRTYYASWAKGRFTISKTSSTTGTLQMTSLTAADTATYFCARSLATPLWGPGTLVTVSS
VL: DIVMTQTPASVEAAVGGTVTIKCQASQSISSYLAWYHQKPGQPPKLLIYAASTLASGVPSRFEGSGSGTQFTLTISDLECADAATYYCQSYDDSRSSSFFYAFGGGTEVVVK
notes: Rabbit monoclonal IgG1

binding result [1]: binds | binding result [2]: binds
B4: 1H24 (antibody, IgG1, V domains shown)
VH: B3 VH with V19L, F24S, V26F, T29N, G48A, I53S, G77V, A99S
VL: B3 VL with A9F, A34S, H37R, A50R, E63K, R95S, S97N, S98N, A102G, K112R
notes: Rabbit monoclonal IgG1

binding result [1]: binds | binding result [2]: binds
B5: 1G24 (antibody, IgG1, V domains shown)
VH: B3 VH with V19L, F24S, V26F, T29N, G48A, I53A, S61N, G77V
VL: DIVMTQTPASVEAAVGGTVTIKCQASESIGNALAWYQQKPGQPPSLLIYRASTLASGIPSRVKGSGSGTQFTLTISDLECADAATYYCQSYDDSSSSSFFYAFGGGTEVVVK
notes: Rabbit monoclonal IgG1

binding result [1]: binds | binding result [2]: binds
B6: 1D2 (antibody, IgG1, V domains shown)
VH: B3 VH with V19L, F24S, V26F, T29N, G48A, I53V, K71R, G77V, A99S
VL: DIVMTQTPFSVEAAVGGTVTIKCQASQSISSYLSWYQQKPGQPPKLLIYRASPLASGVPSRFKGSGSGTQFTLTISDLECADAATYYCQSYDDSSSNNFFYGFGGGTEVVVR
notes: Rabbit monoclonal IgG1

binding result [1]: binds | binding result [2]: binds
B7: 4A15 (antibody, IgG1, V domains shown)
VH: B3 VH with V19L, F24S, I53V, T72A
VL: B3 VL with S28N, S30N, H37Q, A50R, E63K, Q70E, S97I
notes: Rabbit monoclonal IgG1

binding result [1]: binds | binding result [2]: binds
B8: 1C18 (antibody, IgG1, V domains shown)
VH: B3 VH with V19L, F24S, V26F, G48A, I53A, S61T, G77V, T82P, A99S, P101N
VL: B6 VL with F9A, Y32W, I48L, S52T, P53T, N97S, G102A
notes: Rabbit monoclonal IgG1

binding result [1]: binds | binding result [2]: binds
B9: 1H17 (antibody, V domains shown)
VH: QEQLVESGGGLVKPGASLTLTCKASGFSFSSGQLMCWVRQAPGKGLEWIACIGSGSNAISTFYASWAQGRFTISKSSSTTVTLQLTSLTAADTATYFCARVGSDDYGDSDVFDPWGPGTLVTVSS
VL: AAVLTQTPSPVSAAVGGTVSASCQSSKSVYNKNWLSWFQQKPGQPPKLLIYGASTLASGVPSRFKGSGSGTQFTLTISDVQCDDAATYYCAGGYSSSSDTFAFGGGTEVVVKG

binding result [1]: binds | binding result [2]: binds
B10: 7H4 (antibody, IgG1, V domains shown)
VH: QSLEESGGGLVKPGASLTLTCKASGSDFRSYYYICWVRQAPGKGLEWVACIGGGNTDATAYARWAKGRFTISKTSATTVALQMTSLTAADTATYFCVRGGPDNNVQFNLWGPGTLVTVSS
VL: QAVVTQTPSSVSAAVGGTVTISCQSSQSVYSNNLLSWYQQKPGQPPKLLIYKASTLASGVPSRLKGSGSGTQFTLTISEVQCDDAATYYCQGYYSGVIYMFGGGTEVVVK
notes: Rabbit monoclonal IgG1

binding result [1]: binds | binding result [2]: binds
B11: 7B20 (antibody, IgG1, V domains shown)
VH: B10 VH with F28L, R29S, Y31A, V37I, G54V, T56R, D57V, R63T, A76S, A80T
VL: B10 VL with Q1A, A2Q, V4L, S9A, N32S, N33D, L64F, V80L, I98V, M100I
notes: Rabbit monoclonal IgG1

binding result [1]: binds | binding result [2]: binds
B12: 7M5 (antibody, IgG1, V domains shown)
VH: QSLEESGGRLVTPGGSLTLTCTVSGIDLSSHAMIWVRQAPGEGLEWIGTIGSRDTIYYASWAKGRFTISKTSSTTMDLKMTSLTIEDTATYFCVRNALWGPGTLVTVSS
VL: DVVMTQTPASVSEPVGGTVTIKCQASQSIRNELFWWQQKPGQPPKLLIYAASKLASGVPSRFSGSGSGTEFTLTISDLECADAATYYCQCSYVSSSGTYGNVFGGGTEVVVK
notes: Rabbit monoclonal IgG1

binding result [1]: binds | binding result [2]: binds
B13: 4G8 (antibody, IgG1, V domains shown)
VH: QEQLVESGGGLVQPEGSLTLTCAASGFSFSSSYFMCWVRQAPGKGLEWIACIAVGSSGSTYYASWAKGRFTISKTSSTTVTLQMTSLTAADTATYFCARVGYDDYGDSDAFDPWGPGTLVTVSS
VL: AAVLTQTPSPVSAAVGGTVTINCQSSKSVYNKNWLSWFQQKPGQPPKLLIYGASTLASGVPSRFKGSGSGTQFTLTISDVQCDDVATYYCAGGYSSSSDTFAFGGGTEVVVK
notes: Rabbit monoclonal IgG1

binding result [1]: binds | binding result [2]: binds
B14: 1I23 (antibody, IgG1, V domains shown)
VH: QEQLVESGGGLVQPKGSLTLTCAASGFSFSSSYFMCWVRQAPGKGLEWIACIGSGSSAISTFYASWAQGRFTISKTSSTTVTLQMTSLTAADTATYFCARVGYDDYGDSDAFDPWGPGTLVTVSS
VL: B13 VL with T20S, N22S, V85A
notes: Rabbit monoclonal IgG1

binding result [1]: binds | binding result [2]: binds
B15: 4A7 (antibody, IgG1, V domains shown)
VH: B13 VH with A53G, S56G, S64N, G101A, Y105D
VL: B13 VL with T20S, N22S, D79G, V85A
notes: Rabbit monoclonal IgG1
